{"source": "patent US20190359712A1", "about": "(Daiichi Sankyo, published 2019)", "binders": {"B1": {"name": "C3E-7085 (CDR modified humanized anti-CD3 scFv) (scFv)", "scFv": "GEVQLVESGGGLVQPGGSLRLSCAASGVTFNYYGMSWIRQAPGKGLEWVASITRSGGRIYYPDSVKGRFTISRENTQKTLYLQMNSLRAEDTAVYYCTLDGRDGWVAYWGQGTLVTVSSGGGGSGGGGSGGGGSNFMLTQPSSVSGVPGQRVTISCTGNTGNIGSNYVNWYQQLPGTAPKLLIYRDDKRPSGVPDRFSGSKSGTSASLAITGFQAEDEADYYCQSYSSGFIFGGGTKLTVLGAAAGAGGDYKDDDDKGAAAHHHHHH", "notes": "C3E-7036 with arginine for asparagine at position 53 of the VH; the change is already in the entry"}, "B2": {"name": "C3E-7078 (CDR modified humanized anti-CD3 scFv) (scFv)", "scFv": "GEVQLVESGGGLVQPGGSLRLSCAASGVTFNYYGMSWIRQAPGKGLEWVASITRSGGRIYYPDSVKGRFTISRENTQKTLYLQMNSLRAEDTAVYYCTLDGRDGWVAYWGQGTLVTVSSGGGGSGGGGSGGGGSNFMLTQPHSVSESPGKTVTISCKRNTGNIGSNYVNWYQQHEGSSPTTIIYRDDKRPDGVSDRFSGSIDRSSKSASLTISNLKTEDEADYFCQSYSSGFIFGGGTKLTVLGAAAGAGGDYKDDDDKGAAAHHHHHH", "notes": "the change is already in the entry"}, "B3": {"name": "C3E-7093 (CDR modified humanized anti-CD3 scFv) (scFv)", "scFv": "B2 scFv with R54S, D186N", "notes": "C3E-7079 with asparagine for aspartic acid at position 52 of the VL; the change is already in the entry"}, "B4": {"name": "C3E-7087 (CDR modified humanized anti-CD3 scFv) (scFv)", "scFv": "B2 scFv with D186Q", "notes": "C3E-7078 with glutamine for aspartic acid at position 52 of the VL; the change is already in the entry"}, "B5": {"name": "C3E-7089 (CDR modified humanized anti-CD3 scFv) (scFv)", "scFv": "B2 scFv with D186S", "notes": "C3E-7078 with serine for aspartic acid at position 52 of the VL; the change is already in the entry"}, "B6": {"name": "C3E-7079 (CDR modified humanized anti-CD3 scFv) (scFv)", "scFv": "B2 scFv with R54S", "notes": "as for B2"}, "B7": {"name": "C3E-7090 (CDR modified humanized anti-CD3 scFv) (scFv)", "scFv": "B2 scFv with D186A", "notes": "C3E-7078 with alanine for aspartic acid at position 52 of the VL; the change is already in the entry"}, "B8": {"name": "C3E-7092 (CDR modified humanized anti-CD3 scFv) (scFv)", "scFv": "B2 scFv with R54S, D186Q", "notes": "C3E-7079 with glutamine for aspartic acid at position 52 of the VL; the change is already in the entry"}, "B9": {"name": "C3E-7088 (CDR modified humanized anti-CD3 scFv) (scFv)", "scFv": "B2 scFv with D186N", "notes": "C3E-7078 with asparagine for aspartic acid at position 52 of the VL; the change is already in the entry"}, "B10": {"name": "C3E-7086 (CDR modified humanized anti-CD3 scFv) (scFv)", "scFv": "B2 scFv with D186G", "notes": "C3E-7078 with glycine for aspartic acid at position 52 of the VL; the change is already in the entry"}, "B11": {"name": "C3E-7094 (CDR modified humanized anti-CD3 scFv) (scFv)", "scFv": "B2 scFv with R54S, D186S", "notes": "C3E-7079 with serine for aspartic acid at position 52 of the VL; the change is already in the entry"}, "B12": {"name": "C3E-7091 (CDR modified humanized anti-CD3 scFv) (scFv)", "scFv": "B2 scFv with R54S, D186G", "notes": "C3E-7079 with glycine for aspartic acid at position 52 of the VL; the change is already in the entry"}, "B13": {"name": "C3E-7095 (CDR modified humanized anti-CD3 scFv) (scFv)", "scFv": "B2 scFv with R54S, D186A", "notes": "C3E-7079 with alanine for aspartic acid at position 52 of the VL; the change is already in the entry"}}, "key": {"[1]": {"biological_target": "T1, cynomolgus monkey CD3 on cynomolgus monkey PBMC or T cell line HSC-F (cynomolgus monkey, UniProt Q95LI5 22-198)", "T1 construct": "whole, on cells; Native CD3 complex on monkey T cells; also called cynomolgus monkey CD3 (PBMC); cynomolgus monkey CD3 antigen", "T1 sequence (Q95LI5 22-198)": "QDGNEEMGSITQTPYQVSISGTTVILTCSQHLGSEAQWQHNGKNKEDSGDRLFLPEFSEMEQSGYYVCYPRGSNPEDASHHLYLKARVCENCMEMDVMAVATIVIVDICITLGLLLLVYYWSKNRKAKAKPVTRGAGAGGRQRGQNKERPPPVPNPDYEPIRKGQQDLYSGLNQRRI", "test": "flow cytometry on cynomolgus monkey PBMC"}, "human CD3 on human PBMC": {"biological_target": "T2, human CD3 on human PBMC (human, UniProt P07766 23-207)", "T2 construct": "Native CD3 complex on T cells in PBMC; the other chains of the complex are native; also called human CD3 (PBMC)", "test": "flow cytometry on human PBMC"}}, "note": "Substitutions are numbered along the chain they refer to. Names may count otherwise."}
{"binder": "B1", "values": [{"measurement": "binding result", "setting": "[1]", "result": "binds"}, {"measurement": "binding result", "setting": "human CD3 on human PBMC", "result": "binds"}]}
{"binder": "B2", "values": [{"measurement": "binding result", "setting": "[1]", "result": "binds"}, {"measurement": "binding result", "setting": "human CD3 on human PBMC", "result": "binds"}]}
{"binder": "B3", "values": [{"measurement": "binding result", "setting": "[1]", "result": "binds"}, {"measurement": "binding result", "setting": "human CD3 on human PBMC", "result": "binds"}]}
{"binder": "B4", "values": [{"measurement": "binding result", "setting": "[1]", "result": "binds"}, {"measurement": "binding result", "setting": "human CD3 on human PBMC", "result": "binds"}]}
{"binder": "B5", "values": [{"measurement": "binding result", "setting": "[1]", "result": "binds"}, {"measurement": "binding result", "setting": "human CD3 on human PBMC", "result": "binds"}]}
{"binder": "B6", "values": [{"measurement": "binding result", "setting": "[1]", "result": "binds"}, {"measurement": "binding result", "setting": "human CD3 on human PBMC", "result": "binds"}]}
{"binder": "B7", "values": [{"measurement": "binding result", "setting": "[1]", "result": "binds"}, {"measurement": "binding result", "setting": "human CD3 on human PBMC", "result": "binds"}]}
{"binder": "B8", "values": [{"measurement": "binding result", "setting": "[1]", "result": "binds"}, {"measurement": "binding result", "setting": "human CD3 on human PBMC", "result": "binds"}]}
{"binder": "B9", "values": [{"measurement": "binding result", "setting": "[1]", "result": "binds"}, {"measurement": "binding result", "setting": "human CD3 on human PBMC", "result": "binds"}]}
{"binder": "B10", "values": [{"measurement": "binding result", "setting": "[1]", "result": "binds"}, {"measurement": "binding result", "setting": "human CD3 on human PBMC", "result": "binds"}]}
{"binder": "B11", "values": [{"measurement": "binding result", "setting": "[1]", "result": "binds"}, {"measurement": "binding result", "setting": "human CD3 on human PBMC", "result": "binds"}]}
{"binder": "B12", "values": [{"measurement": "binding result", "setting": "[1]", "result": "binds"}, {"measurement": "binding result", "setting": "human CD3 on human PBMC", "result": "binds"}]}
{"binder": "B13", "values": [{"measurement": "binding result", "setting": "[1]", "result": "binds"}, {"measurement": "binding result", "setting": "human CD3 on human PBMC", "result": "binds"}]}
